Assay results published in paper PMC9482650, “Quantitative fragmentomics allow affinity mapping of interactomes” (Nature Communications, 2022).
Changes are numbered by the printed parent chain.

Key:
Test in all cases: holdup assay
Set-up in all cases: key: below the threshold = too weak to quantify, mostly under pKd 3.1 to 4
[1] = target: T1, MPDZ_5, O75970
T1 sequence (O75970 695-796, limits assumed, looked up): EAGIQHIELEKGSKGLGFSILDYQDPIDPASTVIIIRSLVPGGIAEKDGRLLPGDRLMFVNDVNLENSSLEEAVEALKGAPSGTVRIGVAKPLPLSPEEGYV

[2] = target: MAGI2_6, Q86UL8
[3] = target: GRID2IP_1, A4D2P6
[4] = target: Inadl_1, Q8NI35
[5] = target: T2, LIN7B, Q9HAP6
T2 sequence (Q9HAP6 88-185, limits assumed, looked up): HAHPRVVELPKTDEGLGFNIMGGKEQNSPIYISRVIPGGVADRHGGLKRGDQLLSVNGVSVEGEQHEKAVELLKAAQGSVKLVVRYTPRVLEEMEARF

[6] = target: T3, CARD11, Q9BXL7
T3 sequence (Q9BXL7 662-765, limits assumed, looked up): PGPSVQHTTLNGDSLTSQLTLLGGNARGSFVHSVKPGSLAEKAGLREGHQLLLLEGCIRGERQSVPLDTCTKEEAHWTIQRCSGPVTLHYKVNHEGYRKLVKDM

[7] = target: Inadl_9, Q8NI35
[8] = target: AHNAK1, Q09666
[9] = target: T4, LRRC7, Q96NW7
T4 sequence (Q96NW7 1440-1537, limits assumed, looked up): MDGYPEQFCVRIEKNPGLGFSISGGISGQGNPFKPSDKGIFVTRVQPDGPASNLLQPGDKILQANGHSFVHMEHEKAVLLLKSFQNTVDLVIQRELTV

[10] = target: MAGI1_1, Q96QZ7
[11] = target: T5, LNX2_3, Q8N448
T5 sequence (Q8N448 463-564, limits assumed, looked up): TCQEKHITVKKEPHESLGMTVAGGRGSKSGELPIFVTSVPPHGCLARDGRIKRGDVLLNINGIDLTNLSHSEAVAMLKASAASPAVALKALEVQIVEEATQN

[12] = target: PICK1, Q9NRD5
[13] = target: T6, NHERF3_4, Q5T2W1
T6 sequence (Q5T2W1 373-468, limits assumed, looked up): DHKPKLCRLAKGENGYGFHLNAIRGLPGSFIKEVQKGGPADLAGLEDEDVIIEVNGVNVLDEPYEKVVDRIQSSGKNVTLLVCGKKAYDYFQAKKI

[14] = target: T7, GRIP1_5, Q9Y3R0
T7 sequence (Q9Y3R0 568-668, limits assumed, looked up): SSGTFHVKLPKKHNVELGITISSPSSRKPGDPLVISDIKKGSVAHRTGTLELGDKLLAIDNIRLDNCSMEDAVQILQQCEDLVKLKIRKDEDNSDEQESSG

[15] = target: T8, HTRA3, P83110
T8 sequence (P83110 354-453, limits assumed, looked up): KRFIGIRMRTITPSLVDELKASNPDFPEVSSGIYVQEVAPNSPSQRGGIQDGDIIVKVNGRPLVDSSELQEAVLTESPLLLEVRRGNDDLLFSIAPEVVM

[16] = target: IL16_4, Q14005
[17] = target: T9, LIN7A, O14910
T9 sequence (O14910 103-200, limits assumed, looked up): T2 sequence (Q9HAP6 88-185, limits assumed, looked up) with A2S, I20V, V35I, D42E, Q65H, Q77K, G78D, R89K

[18] = target: T10, SNTG1, Q9NSN8
T10 sequence (Q9NSN8 52-150, limits assumed, looked up): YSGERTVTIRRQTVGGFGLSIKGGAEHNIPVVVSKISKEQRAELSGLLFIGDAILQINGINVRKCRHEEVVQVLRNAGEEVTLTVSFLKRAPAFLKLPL

[19] = target: T11, ARHGAP21, Q5T5U3
T11 sequence (Q5T5U3 45-169, limits assumed, looked up): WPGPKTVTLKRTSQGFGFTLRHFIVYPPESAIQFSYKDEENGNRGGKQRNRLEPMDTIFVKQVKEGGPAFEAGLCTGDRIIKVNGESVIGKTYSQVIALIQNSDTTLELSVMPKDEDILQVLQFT

[20] = target: PDZRN4_1, Q6ZMN7
[21] = target: T12, SNTB1, Q13884
T12 sequence (Q13884 107-205, limits assumed, looked up): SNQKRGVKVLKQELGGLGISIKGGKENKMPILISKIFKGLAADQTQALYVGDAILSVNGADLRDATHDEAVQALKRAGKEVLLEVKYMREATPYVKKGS

[22] = target: T13, TIAM2, Q8IVF5
T13 sequence (Q8IVF5 885-986, limits assumed, looked up): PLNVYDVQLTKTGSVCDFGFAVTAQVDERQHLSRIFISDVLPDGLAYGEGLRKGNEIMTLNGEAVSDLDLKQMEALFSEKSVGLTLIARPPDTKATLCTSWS

[23] = target: TJP2_1, Q9UDY2
[24] = target: GRASP, Q7Z6J2
[25] = plain residues with an end cap or a label only (N-terminal biotin on a linker: ado-ado)
[26] = plain residues with an end cap or a label only (N-terminal biotin on a linker: ttds)
[27] = plain residues with an end cap or a label only (N-terminal biotin on a linker: ahx)

Measured: pKd

Sequence of GRID2IP_1, A4D2P6 (A4D2P6 1-87): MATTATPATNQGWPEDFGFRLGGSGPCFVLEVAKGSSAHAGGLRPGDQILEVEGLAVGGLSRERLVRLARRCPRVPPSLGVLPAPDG
Sequence of MAGI1_1, Q96QZ7 (Q96QZ7 1-106): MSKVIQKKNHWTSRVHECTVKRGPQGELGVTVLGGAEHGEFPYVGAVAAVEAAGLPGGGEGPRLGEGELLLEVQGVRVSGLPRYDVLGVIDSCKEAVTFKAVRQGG
Sequence of TJP2_1, Q9UDY2 (Q9UDY2 24-128): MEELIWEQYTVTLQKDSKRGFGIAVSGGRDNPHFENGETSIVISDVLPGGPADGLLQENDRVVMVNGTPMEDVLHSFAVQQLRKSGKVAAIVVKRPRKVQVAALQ
Sequence of MAGI2_6, Q86UL8 (Q86UL8 1141-1229): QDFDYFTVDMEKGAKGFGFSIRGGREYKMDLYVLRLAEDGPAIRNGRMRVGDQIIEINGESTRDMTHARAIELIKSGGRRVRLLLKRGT
Sequence of Inadl_9, Q8NI35 (Q8NI35 1530-1615): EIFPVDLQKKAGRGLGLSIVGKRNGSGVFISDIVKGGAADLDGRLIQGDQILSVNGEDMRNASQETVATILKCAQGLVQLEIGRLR
Sequence of AHNAK1, Q09666 (Q09666 4-100): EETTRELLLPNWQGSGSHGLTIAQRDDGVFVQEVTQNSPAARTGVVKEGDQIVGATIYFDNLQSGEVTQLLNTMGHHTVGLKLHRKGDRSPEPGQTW
Sequence of PDZRN4_1, Q6ZMN7 (Q6ZMN7 213-318): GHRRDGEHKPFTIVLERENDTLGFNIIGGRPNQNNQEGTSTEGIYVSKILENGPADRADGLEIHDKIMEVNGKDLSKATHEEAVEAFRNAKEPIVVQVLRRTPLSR
Sequence of Inadl_1, Q8NI35 (Q8NI35 113-229): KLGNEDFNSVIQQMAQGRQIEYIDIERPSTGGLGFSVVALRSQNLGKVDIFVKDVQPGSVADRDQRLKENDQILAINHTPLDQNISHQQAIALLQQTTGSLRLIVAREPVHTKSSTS
Sequence of PICK1, Q9NRD5 (Q9NRD5 17-115): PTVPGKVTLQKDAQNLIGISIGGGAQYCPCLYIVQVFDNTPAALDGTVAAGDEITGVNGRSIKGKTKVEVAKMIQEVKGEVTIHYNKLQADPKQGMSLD
Sequence of IL16_4, Q14005 (Q14005 1229-1329): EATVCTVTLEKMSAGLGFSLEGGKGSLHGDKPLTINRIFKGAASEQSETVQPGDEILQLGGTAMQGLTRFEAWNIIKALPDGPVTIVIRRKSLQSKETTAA
Sequence of GRASP, Q7Z6J2 (Q7Z6J2 96-193): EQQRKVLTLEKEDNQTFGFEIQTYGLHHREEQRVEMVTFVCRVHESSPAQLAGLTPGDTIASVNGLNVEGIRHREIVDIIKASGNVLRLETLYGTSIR

B1: ACOT6, Q3I5F7 (peptide)
chain: GKKSVKHSKI
3.99: [12]; [25]
3.92: [21]; [25]
4.06: [19]; [25]
below the threshold: [1]; [25] | [2]; [25] | [3]; [25] | [4]; [25] | [5]; [25] | [6]; [25] | [7]; [25] | [8]; [25] | [9]; [25] | [10]; [25] | [11]; [25] | [13]; [25] | [14]; [25] | [15]; [25] | [16]; [25] | [17]; [25] | [18]; [25] | [20]; [25] | [22]; [25] | [23]; [25] | [24]; [25]

B2: CTNNB1, P35222 (peptide)
chain: NQLAWFDTDL
4.88: [19]; [26]
below the threshold: [1]; [26] | [3]; [26] | [4]; [26] | [5]; [26] | [6]; [26] | [7]; [26] | [8]; [26] | [10]; [26] | [11]; [26] | [12]; [26] | [13]; [26] | [14]; [26] | [15]; [26] | [16]; [26] | [17]; [26] | [20]; [26] | [21]; [26] | [22]; [26] | [23]; [26] | [24]; [26]
3.94: [9]; [26]
5.15: [2]; [26]
3.71: [18]; [26]

B3: SHROOM3, Q8TF72 (peptide)
chain: GIFPTLTSPL
below the threshold: [1]; [27] | [2]; [27] | [3]; [27] | [4]; [27] | [5]; [27] | [6]; [27] | [7]; [27] | [8]; [27] | [9]; [27] | [10]; [27] | [11]; [27] | [12]; [27] | [14]; [27] | [15]; [27] | [16]; [27] | [17]; [27] | [18]; [27] | [19]; [27] | [20]; [27] | [21]; [27] | [22]; [27] | [23]; [27]
3.95: [13]; [27]
5.03: [24]; [27]

B4: LNX1, Q8TBB1 (peptide)
chain: TIVSWPGTFL
3.48: [5]; [27]
3.67: [2]; [27]
below the threshold: [1]; [27] | [3]; [27] | [4]; [27] | [6]; [27] | [7]; [27] | [8]; [27] | [9]; [27] | [10]; [27] | [11]; [27] | [12]; [27] | [13]; [27] | [14]; [27] | [16]; [27] | [17]; [27] | [18]; [27] | [19]; [27] | [21]; [27] | [22]; [27] | [23]; [27]
4.16: [20]; [27]
4.15: [24]; [27]
3.62: [15]; [27]
